In paper PMC11948756, “The molecular properties of the bHLH TCF4 protein as an intrinsically disordered hub transcription factor” (Cell Communication and Signaling : CCS, 2025):

Molecular target: the molecule itself
Test: native gel or EMSA + SEC + AUC; free TCF4 and TCF4 with E-box dsDNA; buffer S (20 mM Tris-HCl, 150 mM NaCl, 2 mM TCEP, pH 7.5); SV-AUC at 20 °C, 2.5, 5.0 and 7.5 µM dTCF4, molecular weight fixed at that of the dimer (96.5 kDa); SEC on Superdex 200 Increase 10/300; native PAGE on 5% gel in 0.5 x TBE at 4 °C

B1: Transcription factor 4 (TCF4), human isoform I- (natural protein, UniProt P15884-16 1-451, looked up)
chain: MQDGHHSSDPWSSSSGMNQPGYAGMLGNSSHIPQSSSYCSLHPHERLSYPSHSSADINSSLPPMSTFHRSGTNHYSTSSCTPPANGTDSIMANRGSGAAGSSQTGDALGKALASIYSPDHTNNSFSSNPSTPVGSPPSLSAGTAVWSRNGGQASSSPNYEGPLHSLQSRIEDRLERLDDAIHVLRNHAVGPSTAMPGGHGDMHGIIGPSHNGAMGGLGSGYGTGLLSANRHSLMVGTHREDGVALRGSHSLLPNQVPVPQLPVQSATSPDLNPPQDPYRGMPPGLQGQSVSSGSSEIKSDDEGDENLQDTKSSEDKKLDDDKKDIKSITSNNDDEDLTPEQKAEREKERRMANNARERLRVRDINEAFKELGRMVQLHLKSDKPQTKLLILHQAVAVILSLEQQVRERNLNPKAACLKRREEEKVSSEPPPLSLAGPHPGMGDASNHMGQM
notes: Transcription factor 4 (TCF4), human, isoform I- (UniProt P15884-16), full length; lacks amino acids 1-216 of the canonical isoform B- (P15884-1); bHLH domain at residues 348-401; dimer 96.5 kDa; numbers count on: isoform I- (P15884-16); cDNA synthesised and codon-optimised, cloned into pET-SUMO; also called TCF4 I-; dTCF4 (dimeric TCF4); source: E. coli ArcticExpress, purified (Ni-NTA with 6 M …)
B1: binds.
